What is called Kd is the equilibrium constant for the complex coming apart.

For two molecules, Kd results are on record in paper PMC8497992, “Structural and functional characterization explains loss of dNTPase activity of the cancer-specific R366C/H mutant SAMHD1 proteins”.

Test in all cases: fluorescence polarization; 50 mM Tris-HCl pH 8.0, 50 mM KCl, 1 mM EDTA; 50 nM labeled oligonucleotide; temperature not stated
Common to all, as to settings: protein: recombinant; chain copies: 2; label: 5'-6-carboxyfluorescein; single strand
In general terms: In fluorescence polarisation assays a small probe gives low polarisation when free and higher when bound to something large.

The target of data set [1] is SAMHD1 HD domain R366C (UniProt Q9Y3Z3 114-626, R366C).
Chain of SAMHD1 HD domain R366C (Q9Y3Z3 114-626 R366C): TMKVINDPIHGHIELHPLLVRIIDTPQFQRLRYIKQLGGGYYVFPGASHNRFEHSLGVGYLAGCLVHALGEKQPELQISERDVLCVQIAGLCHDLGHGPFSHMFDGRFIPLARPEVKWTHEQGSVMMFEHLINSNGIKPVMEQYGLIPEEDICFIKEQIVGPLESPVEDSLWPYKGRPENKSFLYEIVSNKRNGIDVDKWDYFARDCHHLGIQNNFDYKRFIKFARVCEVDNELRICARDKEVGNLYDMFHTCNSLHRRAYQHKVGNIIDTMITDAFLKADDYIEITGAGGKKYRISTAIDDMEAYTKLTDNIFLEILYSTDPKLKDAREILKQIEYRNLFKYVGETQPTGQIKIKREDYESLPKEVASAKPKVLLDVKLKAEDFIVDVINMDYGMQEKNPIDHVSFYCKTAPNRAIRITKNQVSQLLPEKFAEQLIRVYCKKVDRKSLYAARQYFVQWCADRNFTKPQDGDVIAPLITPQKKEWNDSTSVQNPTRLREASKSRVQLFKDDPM
Data set [2] concerns the target SAMHD1 HD domain R366H (UniProt Q9Y3Z3 114-626, R366H).
Data set [3] concerns the target SAMHD1 HD domain WT (UniProt Q9Y3Z3 114-626).

Chain of SAMHD1 HD domain WT (Q9Y3Z3 114-626): as the sequence (Q9Y3Z3 114-626 R366C) above, with C253R counted along it
Chain of SAMHD1 HD domain R366H (Q9Y3Z3 114-626 R366H): as the sequence (Q9Y3Z3 114-626 R366C) above, with C253H counted along it

B1: 6FAM-ribo(C*G*C*C*U) (ssRNA)
RNA: CGCCU
modifications: * between all nucleotides (probably phosphorothioate; not defined in the material)
As to B1, the results for the dissociation constant (Kd) in data set [1], in data set [2] and in data set [3] were 1450 ± 51 nM, 1120 ± 42 nM and 154 ± 4.2 nM, respectively.

B2: 6FAM-deoxy(C*G*C*C*T) (ssDNA)
DNA: CGCCT
modifications: * between all nucleotides (probably phosphorothioate; not defined in the material)
Turning to B2, the dissociation constant Kd in data set [1] is 689 ± 39 nM; in data set [2], 606 ± 46 nM; in data set [3], 147 ± 8.3 nM.
